125 sequences from the supplement of paper PMC9112550, “Optimization of the antimicrobial peptide Bac7 by deep mutational scanning” (BMC Biology, 2022) can be followed below.

The subject of this data set is Escherichia coli TOP10. Put plainly: shrunken log2 fold change of peptide-encoding DNA abundance (4.5 h post-induction vs induction); higher = less antimicrobial activity (less host growth inhibition). To be noted: time post-induction: 4.5 h; library: site-saturation at positions 5, 18, 19, 20.
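Further: peptides expressed intracellularly from a pBAD plasmid library in pooled LB shake-flask culture, induced with 0.3% L-arabinose, DNA abundance read by NGS, three biological replicates, DESeq2 with apeglm shrinkage.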

With RRIRWRPPRLPRPRPRPKYCPRP, the “shrunken log2 fold change” value is -0.245.

In the case of RRIRDRPPRLPRPRPRPKLPPRP, the “shrunken log2 fold change” value was determined as 0.0818.

For RRIRIRPPRLPRPRPRPYMTPRP, the “shrunken log2 fold change” value is -1.6.

In the case of RRIRFRPPRLPRPRPRPKVSPRP, the “shrunken log2 fold change” value was 0.00612.

As for RRIRNRPPRLPRPRPRPCYSPRP, the “shrunken log2 fold change” value was -0.596.

For the sequence RRIRYRPPRLPRPRPRPECPPRP, the “shrunken log2 fold change” value is -0.00973.

In the case of RRIRMRPPRLPRPRPRPEINPRP, the “shrunken log2 fold change” value came to 2.85.

Consider RRIRCRPPRLPRPRPRPWKHPRP, for which the “shrunken log2 fold change” value is -0.264.

In the case of RRIRTRPPRLPRPRPRPPEPPRP, the “shrunken log2 fold change” value is 0.416.

As to RRIRDRPPRLPRPRPRPWCCPRP, the “shrunken log2 fold change” value is 0.0175.

As to RRIRVRPPRLPRPRPRPDCIPRP, the “shrunken log2 fold change” value was -0.161.

As to RRIRTRPPRLPRPRPRPKKLPRP, the “shrunken log2 fold change” value is -0.298.

For the sequence RRIRGRPPRLPRPRPRPIYHPRP, the “shrunken log2 fold change” value is -0.1.

Consider RRIRCRPPRLPRPRPRPNRGPRP, for which the “shrunken log2 fold change” value was -0.00554.

For the sequence RRIRDRPPRLPRPRPRPWRVPRP, the “shrunken log2 fold change” value worked out at 0.28.

Consider RRIRYRPPRLPRPRPRPCFLPRP, for which the “shrunken log2 fold change” value was -1.

RRIRWRPPRLPRPRPRPQKDPRP: the “shrunken log2 fold change” value is -0.154.

Consider RRIRERPPRLPRPRPRPLSPPRP, for which the “shrunken log2 fold change” value is -0.17.

Take RRIRHRPPRLPRPRPRPVHSPRP: the “shrunken log2 fold change” value worked out at 0.0246.

As to RRIRERPPRLPRPRPRPVICPRP, the “shrunken log2 fold change” value is -0.72.

With RRIRERPPRLPRPRPRPHGCPRP, the “shrunken log2 fold change” value was -0.00136.

Consider RRIRGRPPRLPRPRPRPQTEPRP, for which the “shrunken log2 fold change” value turned out to be 0.149.

For RRIRGRPPRLPRPRPRPVQWPRP, the “shrunken log2 fold change” value is 0.171.

Regarding RRIRARPPRLPRPRPRPLRMPRP, the “shrunken log2 fold change” value worked out at 0.655.

Consider RRIRPRPPRLPRPRPRPSSLPRP, for which the “shrunken log2 fold change” value came out at 0.0404.

Consider RRIRMRPPRLPRPRPRPFCQPRP, for which the “shrunken log2 fold change” value is 0.0975.

Take RRIRYRPPRLPRPRPRPINRPRP: the “shrunken log2 fold change” value was -0.018.

With RRIRSRPPRLPRPRPRPWYQPRP, the “shrunken log2 fold change” value is -0.314.

As to RRIRLRPPRLPRPRPRPPLGPRP, the “shrunken log2 fold change” value is 0.409.

In the case of RRIRQRPPRLPRPRPRPYIMPRP, the “shrunken log2 fold change” value is -1.64.

Take RRIRRRPPRLPRPRPRPQSHPRP: the “shrunken log2 fold change” value is -0.0536.

Turning to RRIRARPPRLPRPRPRPTGPPRP, the “shrunken log2 fold change” value was found to be 0.284.

With RRIRRRPPRLPRPRPRPSFHPRP, the “shrunken log2 fold change” value was -0.182.

Take RRIRDRPPRLPRPRPRPELIPRP: the “shrunken log2 fold change” value came out at 0.0219.

For RRIRLRPPRLPRPRPRPLMQPRP, the “shrunken log2 fold change” value was -0.0571.

Regarding RRIRDRPPRLPRPRPRPGHRPRP, the “shrunken log2 fold change” value is -0.0741.

On to RRIRGRPPRLPRPRPRPIDNPRP, for which the “shrunken log2 fold change” value amounted to 0.186.

As to RRIRMRPPRLPRPRPRPLGSPRP, the “shrunken log2 fold change” value was determined as 0.169.

For RRIRTRPPRLPRPRPRPEGFPRP, the “shrunken log2 fold change” value was -0.041.

For RRIRERPPRLPRPRPRPNKQPRP, the “shrunken log2 fold change” value is -0.174.

Consider RRIRQRPPRLPRPRPRPGETPRP, for which the “shrunken log2 fold change” value came out at 0.0131.

In the case of RRIRARPPRLPRPRPRPLISPRP, the “shrunken log2 fold change” value is -0.0384.

Consider RRIRYRPPRLPRPRPRPAAPPRP, for which the “shrunken log2 fold change” value was determined as 0.726.

As for RRIRFRPPRLPRPRPRPNPPPRP, the “shrunken log2 fold change” value came to 0.544.

With RRIRSRPPRLPRPRPRPTESPRP, the “shrunken log2 fold change” value came out at 0.0325.

Take RRIRDRPPRLPRPRPRPIGMPRP: the “shrunken log2 fold change” value was 0.0484.

Consider RRIRQRPPRLPRPRPRPMVYPRP, for which the “shrunken log2 fold change” value stood at 0.017.

For RRIRWRPPRLPRPRPRPYKGPRP, the “shrunken log2 fold change” value was -0.0487.

Take RRIRVRPPRLPRPRPRPVVNPRP: the “shrunken log2 fold change” value was -0.0959.

Regarding RRIRSRPPRLPRPRPRPMKDPRP, the “shrunken log2 fold change” value was -0.157.

As for RRIRERPPRLPRPRPRPYISPRP, the “shrunken log2 fold change” value was -0.977.

Turning to RRIRMRPPRLPRPRPRPNFRPRP, the “shrunken log2 fold change” value was 0.0542.

Consider RRIRARPPRLPRPRPRPQFWPRP, for which the “shrunken log2 fold change” value is 0.148.

For RRIRWRPPRLPRPRPRPSTGPRP, the “shrunken log2 fold change” value amounted to 0.00923.

Regarding RRIRWRPPRLPRPRPRPSTAPRP, the “shrunken log2 fold change” value amounted to 0.316.

With RRIRLRPPRLPRPRPRPAPWPRP, the “shrunken log2 fold change” value amounted to 0.354.

In the case of RRIRCRPPRLPRPRPRPRPKPRP, the “shrunken log2 fold change” value was 0.901.

For RRIRTRPPRLPRPRPRPYGHPRP, the “shrunken log2 fold change” value is -0.587.

In the case of RRIRMRPPRLPRPRPRPDSEPRP, the “shrunken log2 fold change” value was 1.82.

For the sequence RRIRYRPPRLPRPRPRPWERPRP, the “shrunken log2 fold change” value stood at 0.0306.

As for RRIRTRPPRLPRPRPRPGMGPRP, the “shrunken log2 fold change” value amounted to 0.104.

For the sequence RRIRSRPPRLPRPRPRPDNAPRP, the “shrunken log2 fold change” value is -0.201.

Consider RRIRDRPPRLPRPRPRPNNKPRP, for which the “shrunken log2 fold change” value was -0.682.

For RRIRNRPPRLPRPRPRPDMNPRP, the “shrunken log2 fold change” value was -0.0522.

Turning to RRIRVRPPRLPRPRPRPNDCPRP, the “shrunken log2 fold change” value was -0.2.

RRIRSRPPRLPRPRPRPEGHPRP: the “shrunken log2 fold change” value is 0.0136.

RRIRHRPPRLPRPRPRPYLAPRP: the “shrunken log2 fold change” value was -0.00514.

As to RRIRMRPPRLPRPRPRPIYMPRP, the “shrunken log2 fold change” value was -0.0618.

Take RRIRLRPPRLPRPRPRPRGNPRP: the “shrunken log2 fold change” value turned out to be 0.0735.

As for RRIRYRPPRLPRPRPRPAYNPRP, the “shrunken log2 fold change” value was -0.638.

As to RRIRNRPPRLPRPRPRPCSCPRP, the “shrunken log2 fold change” value is -0.0018.

Regarding RRIRERPPRLPRPRPRPAMKPRP, the “shrunken log2 fold change” value was -0.0226.

Turning to RRIRFRPPRLPRPRPRPTAIPRP, the “shrunken log2 fold change” value is -0.0113.

For RRIRMRPPRLPRPRPRPRPYPRP, the “shrunken log2 fold change” value was 0.126.

For RRIRCRPPRLPRPRPRPKTMPRP, the “shrunken log2 fold change” value was -0.172.

As for RRIRERPPRLPRPRPRPTGMPRP, the “shrunken log2 fold change” value was -0.128.

With RRIRPRPPRLPRPRPRPCIEPRP, the “shrunken log2 fold change” value is -0.291.

For RRIRFRPPRLPRPRPRPEHFPRP, the “shrunken log2 fold change” value is -0.213.

As to RRIRYRPPRLPRPRPRPKSWPRP, the “shrunken log2 fold change” value was -0.00323.

In the case of RRIRGRPPRLPRPRPRPATWPRP, the “shrunken log2 fold change” value was determined as 0.565.

With RRIRCRPPRLPRPRPRPVIKPRP, the “shrunken log2 fold change” value was -0.0948.

Take RRIRQRPPRLPRPRPRPTDDPRP: the “shrunken log2 fold change” value is -0.0703.

Take RRIRGRPPRLPRPRPRPFRWPRP: the “shrunken log2 fold change” value was found to be 0.053.

For the sequence RRIRWRPPRLPRPRPRPETLPRP, the “shrunken log2 fold change” value is 0.0224.

In the case of RRIRVRPPRLPRPRPRPMGMPRP, the “shrunken log2 fold change” value came out at 0.0727.

In the case of RRIRVRPPRLPRPRPRPCMCPRP, the “shrunken log2 fold change” value turned out to be 0.00286.

Regarding RRIRQRPPRLPRPRPRPADNPRP, the “shrunken log2 fold change” value was -0.536.

On to RRIRNRPPRLPRPRPRPQCMPRP, for which the “shrunken log2 fold change” value stood at 2.42.

On to RRIRDRPPRLPRPRPRPTCKPRP, for which the “shrunken log2 fold change” value was determined as 0.0657.

With RRIRYRPPRLPRPRPRPENSPRP, the “shrunken log2 fold change” value is -0.0207.

In the case of RRIRMRPPRLPRPRPRPIQIPRP, the “shrunken log2 fold change” value is -0.155.

RRIRRRPPRLPRPRPRPGPIPRP: the “shrunken log2 fold change” value came to 0.174.

Turning to RRIRQRPPRLPRPRPRPPSQPRP, the “shrunken log2 fold change” value came out at 0.0863.

Consider RRIRERPPRLPRPRPRPQDDPRP, for which the “shrunken log2 fold change” value amounted to 0.121.

With RRIRIRPPRLPRPRPRPLNMPRP, the “shrunken log2 fold change” value was -0.528.

Regarding RRIRQRPPRLPRPRPRPFVFPRP, the “shrunken log2 fold change” value is -0.273.

RRIRIRPPRLPRPRPRPKRMPRP: the “shrunken log2 fold change” value was -0.518.

As for RRIRCRPPRLPRPRPRPTMFPRP, the “shrunken log2 fold change” value is -0.2.

As to RRIRKRPPRLPRPRPRPHKEPRP, the “shrunken log2 fold change” value was -0.0849.

In the case of RRIRARPPRLPRPRPRPQQIPRP, the “shrunken log2 fold change” value turned out to be 0.218.

With RRIRYRPPRLPRPRPRPSFEPRP, the “shrunken log2 fold change” value is -0.689.

Consider RRIRMRPPRLPRPRPRPKCTPRP, for which the “shrunken log2 fold change” value was 0.995.

Regarding RRIRRRPPRLPRPRPRPNNMPRP, the “shrunken log2 fold change” value was -0.348.

For the sequence RRIRYRPPRLPRPRPRPEHPPRP, the “shrunken log2 fold change” value is -0.143.

As to RRIRSRPPRLPRPRPRPIWQPRP, the “shrunken log2 fold change” value is -0.0554.

On to RRIRKRPPRLPRPRPRPHKTPRP, for which the “shrunken log2 fold change” value was -0.0618.

As for RRIRNRPPRLPRPRPRPKKKPRP, the “shrunken log2 fold change” value stood at 0.011.

On to RRIRCRPPRLPRPRPRPWGKPRP, for which the “shrunken log2 fold change” value was -0.102.

On to RRIRERPPRLPRPRPRPVNRPRP, for which the “shrunken log2 fold change” value is -0.294.

In the case of RRIRWRPPRLPRPRPRPANRPRP, the “shrunken log2 fold change” value worked out at 0.0566.

RRIRMRPPRLPRPRPRPIPEPRP: the “shrunken log2 fold change” value is -0.0403.

RRIRSRPPRLPRPRPRPMWYPRP: the “shrunken log2 fold change” value was -0.0284.

Turning to RRIRTRPPRLPRPRPRPRIIPRP, the “shrunken log2 fold change” value was -0.215.

Turning to RRIRWRPPRLPRPRPRPGDSPRP, the “shrunken log2 fold change” value was -0.163.

RRIRRRPPRLPRPRPRPPGYPRP: the “shrunken log2 fold change” value was determined as 1.22.

Take RRIRRRPPRLPRPRPRPTQVPRP: the “shrunken log2 fold change” value was 0.677.

Turning to RRIRFRPPRLPRPRPRPNNLPRP, the “shrunken log2 fold change” value is -0.12.

Turning to RRIRWRPPRLPRPRPRPYSTPRP, the “shrunken log2 fold change” value was -0.225.

RRIRARPPRLPRPRPRPCFDPRP: the “shrunken log2 fold change” value amounted to 0.191.

As to RRIRQRPPRLPRPRPRPLQRPRP, the “shrunken log2 fold change” value is -0.0166.

As to RRIRNRPPRLPRPRPRPPSHPRP, the “shrunken log2 fold change” value was -0.301.

With RRIRDRPPRLPRPRPRPTPVPRP, the “shrunken log2 fold change” value worked out at 0.405.

As to RRIRQRPPRLPRPRPRPTMEPRP, the “shrunken log2 fold change” value is -0.0535.

As to RRIRLRPPRLPRPRPRPEIKPRP, the “shrunken log2 fold change” value was -0.12.

Consider RRIRTRPPRLPRPRPRPNDLPRP, for which the “shrunken log2 fold change” value is -0.354.
